Results on three molecules are retold here after article PMC3471918 (PLoS ONE, 2012).

Experiment in all cases: AUC; sedimentation velocity, 4°C, 40,000 rpm, 50 mM Tris pH 7.4, absorbance at 280 nm, c(s,ff0) distributions by SEDFIT corrected to 20,w; monomer, dimer and higher oligomers
Data set [1] has as its target cysteine-free rat insulin degrading enzyme (all twelve cysteines converted to serines) (rat) (UniProt P35559).
Data set [2] has as its target rat insulin degrading enzyme C904S (rat) (UniProt P35559).
Data set [3] concerns the molecule itself.

In data set [1], “cysteine-free rat insulin degrading enzyme (all twelve cysteines converted to serines) (from UniProt P35559 1-1019)” yielded a fold decrease in dimer content against wild type IDE of 2 fold.
Turning to “rat insulin degrading enzyme C904S (from UniProt P35559 1-1019)”, in data set [2], the stoichiometry N (as a rule, the number of molecules, sites or subunits per partner or assembly) was determined as 2.

B1: rat insulin degrading enzyme (IDE), wild type (enzyme, UniProt P35559 1-1019, looked up)
chain: MNNPAIQRIEDHIVKSPEDKREYRGLELANGIKVLLISDPTTDKSSAALDVHIGSLSDPPNIPGLSHFCEHMLFLGTKKYPKENEYSQFLSEHAGSSNAFTSGEHTNYYFDVSHEHLEGALDRFAQFFLCPLFDASCKDREVNAVDSEHEKNVMNDAWRLFQLEKATGNPKHPFSKFGTGNKYTLETRPNQEGIDVREELLKFHSTYYSSNLMAICVLGRESLDDLTNLVVKLFSEVENKNVPLPEFPEHPFQEEHLKQLYKIVPIKDIRNLYVTFPIPDLQQYYKSNPGHYLGHLIGHEGPGSLLSELKSKGWVNTLVGGQKEGARGFMFFIINVDLTEEGLLHVEDIILHMFQYIQKLRAEGPQEWVFQECKDLNAVAFRFKDKERPRGYTSKIAGKLHYYPLNGVLTAEYLLEEFRPDLIDMVLDKLRPENVRVAIVSKSFEGKTDRTEQWYGTQYKQEAIPEDVIQKWQNADLNGKFKLPTKNEFIPTNFEILALEKDATPYPALIKDTAMSKLWFKQDDKFFLPKACLNFEFFSPFAYVDPLHCNMAYLYLELLKDSLNEYAYAAELAGLSYDLQNTIYGMYLSVKGYNDKQPILLKKITEKMATFEIDKKRFEIIKEAYMRSLNNFRAEQPHQHAMYYLRLLMTEVAWTKDELKEALDDVTLPRLKAFIPQLLSRLHIEALLHGNITKQAALGVMQMVEDTLIEHAHTKPLLPSQLVRYREVQLPDRGWFVYQRRNEVHNNCGIEIYYQTDMQSTSENMFLELFCQIISEPCFNTLRTKEQLGYIVFSGPRRANGIQGLRFIIQSEKPPHYLESRVEAFLITMEKAIEDMTEEAFQKHIQALAIRRLDKPKKLSAECAKYWGEIISQQYNYDRDNIEVAYLKTLSKDDIIKFYKEMLAVDAPRRHKVSVHVLAREMDSCPVVGEFPSQNDINLSEAPPLPQPEVIHNMTEFKRGLPLFPLVKPHINFMAAKL
notes: Insulin degrading enzyme, rat; EC 3.4.24.56; also called wild type IDE; native enzyme; source: Sf9 insect cells, purified (HIS-select Ni-NTA agarose)
Turning to B1, in data set [3], the “stoichiometry N” value was found to be 2.
